Substrate: Nc1nc(=O)[nH]cc1F
Assay: steady-state kinetics
Type: biochemical, Saccharomyces cerevisiae
Conditions: Zn2+

B1: yeast cytosine deaminase (yCD) (Saccharomyces cerevisiae S288C) (protein)
chain: MASKWDQKGMDIAYEEAALGYKEGGVPIGGCLINNKDGSVLGRGHNMRFQKGSATLHGEISTLENCGRLEGKVYKDTTLYTTLSPCDMCTGAIIMYGIPRCVVGENVNFKSKGEKYLQTRGHEVVVVDDERCKKIMKQFIDERPQDWFEDIGE
With B1 the Km was 0.16 ± 0.01 mM, the kcat was 17 ± 0.4 s⁻¹ and the kcat/Km was 106000 M⁻¹ s⁻¹.
